Molecular target: T1, murine PD-L1 (murine, UniProt Q9EP73 19-238, limits assumed)
T1 construct: also called PD-Ll; mouse target protein
Assay: not described; stated in Example 1

T1 sequence (Q9EP73 19-238 limits assumed): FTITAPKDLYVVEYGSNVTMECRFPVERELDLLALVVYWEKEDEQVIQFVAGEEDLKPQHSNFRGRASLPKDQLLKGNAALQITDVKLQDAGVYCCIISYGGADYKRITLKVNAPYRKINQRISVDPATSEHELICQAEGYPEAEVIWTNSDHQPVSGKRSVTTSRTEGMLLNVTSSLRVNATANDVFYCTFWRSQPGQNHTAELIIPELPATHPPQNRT

binding result: binds
B1: anti-murine PD-L1 clone 178G7 (antibody, V domains shown)
VH: QVQLQQSGADLAKPGSSVKISCKASGYNFNSYYINWIKQTTGQGLEYIGYINTVSGTTKYSEKFKGKATLTVDKSSSTAFMQLSSLTPDDSAVYYCARGTIVLDDYWGQGVKVTVSS
VL: DIVMTQTPSSQAVSAGEKVTMSCKSSQSLLYNEKKKNYLAWYQQKPGQSPKLLIYWASTRESGVPDRFLGSGSGTDFTLTINSVQAEDLAVYYCQQSYDFPRTFGGGTKLELKR
notes: also called anti-PD-L1 antibody; anti-PD-L1 therapy

Source: patent publication WO2017205216A1 (dated 2017)
